# Experimental data reported in article PMC11053023 (Nature Communications, 2024).
# Assays:
# [1] = biological target: T1, FEM1B-EB-EC ternary complex (human, UniProt Q9UK73 1-627; Q15370 1-118; Q15369 17-112); experiment: ITC; peptides (0.5-1 mM) titrated into 50 μM protein in the cell, 25 °C; 20 mM Tris, 200 mM NaCl, pH 7.5, 1 mM EDTA; one-site binding model; conditions: both partners purified
# T1 construct: FEM1B, human, full-length (FEM1B^FL); elongin B (EB, ELOB), human; elongin C (EC, ELOC), human; written as one protomer; also called FEM1B-elongin B-elongin C; FEM1B-ELOB-ELOC; source: E. coli BL21(DE3), co-expressed, purified (Ni-NTA, SEC); copies: + +
# [2] = biological target: T2, FEM1B-EB-EC ternary complex with FEM1B D356A/V391A/Q394A/F501A/H502A (human, UniProt Q9UK73 1-627; Q15370 1-118; Q15369 17-112, D356A | V391A | Q394A | F501A | H502A); experiment: ITC; SUMO fusion peptides (0.5-1 mM) titrated into 50 μM FEM1B-EB-EC in the cell, 25 °C, 20 mM Tris, 200 mM NaCl, pH 7.5, 1 mM EDTA; one-site binding model; conditions: both partners purified
# T2 construct: FEM1B, human, full length, quintuple mutant of the aromatic (psi) pocket; elongin B (EB, ELOB), human; elongin C (EC, ELOC), human; also called 5A mutant; FEM1BFL-EB-EC D356A/V391A/Q394A/F501A/H502A; source: E. coli BL21(DE3), purified in the same way as the WT protein; copies: + +
binder,measurement,setting,value
KKHSLDLLLRHLSP [CCDC89 C-degron variant with deletion of nine residues in the linker region],Kd,[1],> 50 µM
"KAADHLHKFHENDNGAAAGDLWQ [CUX1 C-degron F-22A, SUMO fusion]",Kd,[1],> 500 µM
"VFSDLKNESGQEDKKRLLLGLDR (CDK5R1, human, C-terminal 23 residues; also called CDK5R1 23-mer; 23-aa CDK5R1 C-degron; source: E. coli BL21(DE3), purified (Ni-NTA; SEC for ITC); not shown: SUMO with (GGGS)2 linker, N-terminal, kept) [SUMO-(GGGS)2-CDK5R1 285-307 WT]",Kd,[2],5.7 ± 0.8 µM
same,stoichiometry N,[2],0.16
"KKRLLLGLDR (CDK5R1, human, C-terminal 10 residues; also called CDK5R1 10-mer; 10-aa CDK5R1 C-degron; source: E. coli BL21(DE3), purified (Ni-NTA; SEC for ITC); not shown: SUMO with (GGGS)2 linker, N-terminal, kept) [SUMO-(GGGS)2-CDK5R1 298-307 WT]",stoichiometry N,[2],0.46
